Results published in IntAct's records for PubMed 17070842.

B1: Signal-regulatory protein beta-1 (Homo sapiens), O00241 (parent)
chain: MPVPASWPHLPSPFLLMTLLLGRLTGVAGEDELQVIQPEKSVSVAAGESATLRCAMTSLIPVGPIMWFRGAGAGRELIYNQKEGHFPRVTTVSELTKRNNLDFSISISNITPADAGTYYCVKFRKGSPDDVEFKSGAGTELSVRAKPSAPVVSGPAVRATPEHTVSFTCESHGFSPRDITLKWFKNGNELSDFQTNVDPAGDSVSYSIHSTARVVLTRGDVHSQVICEIAHITLQGDPLRGTANLSEAIRVPPTLEVTQQPMRAENQANVTCQVSNFYPRGLQLTWLENGNVSRTETASTLIENKDGTYNWMSWLLVNTCAHRDDVVLTCQVEHDGQQAVSKSYALEISAHQKEHGSDITHEAALAPTAPLLVALLLGPKLLLVVGVSAIYICWKQKA
B2: Tyrosine-protein phosphatase non-receptor type substrate 1 (Homo sapiens), P78324-4 (parent)
chain: MEPAGPAPGRLGPLLCLLLAASCAWSGVAGEEELQVIQPDKSVLVAAGETATLRCTATSLIPVGPIQWFRGAGPGRELIYNQKEGHFPRVTTVSDLTKRNNMDFSIRIGNITPADAGTYYCVKFRKGSPDVEFKSGAGTELSVRAKPSAPVVSGPAARATPQHTVSFTCESHGFSPRDITLKWFKNGNELSDFQTNVDPVGESVSYSIHSTAKVVLTREDVHSQVICEVAHVTLQGDPLRGTANLSETIRVPPTLEVTQQPVRAENQVNVTCQVRKFYPQRLQLTWLENGNVSRTETASTVTENKDGTYNWMSWLLVNVSAHRDDVKLTCQVEHDGQPAVSKSHDLKVSAHPKEQGSNTAAENTGSNERNIYIVVGVVCTLLVALLMAALYLVRIRQKKAQGSTSSTRLHEPEKNAREITQDTNDITYADLNLPKGKKPAPQAAEPNNHTEYASIQTSPQPASEDTLTYADLDMVHLNRTPKQPAPKPEPSFSEYASVQVPRK

Variants of: B1
Conditions: with cd47_human CD47, Q08722
Target sequence in this assay (Q08722 whole entry): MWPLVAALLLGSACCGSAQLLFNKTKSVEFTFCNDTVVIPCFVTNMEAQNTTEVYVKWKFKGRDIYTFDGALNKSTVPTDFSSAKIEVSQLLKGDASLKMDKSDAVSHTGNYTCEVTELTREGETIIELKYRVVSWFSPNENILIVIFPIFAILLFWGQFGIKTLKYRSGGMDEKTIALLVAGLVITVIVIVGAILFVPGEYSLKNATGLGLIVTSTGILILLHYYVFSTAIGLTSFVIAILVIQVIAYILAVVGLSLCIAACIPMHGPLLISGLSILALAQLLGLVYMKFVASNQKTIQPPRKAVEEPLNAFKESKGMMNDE

| Variant | effect of a mutation on the interaction |
| --- | --- |
| M56V;M66Q;A73P | causing an interaction |
| M56V;M66Q | causing an interaction |
| M56V;M66Q;L101M | causing an interaction |

Variants of: B2
Conditions: with cd47_human CD47, Q08722
Target sequence in this assay (Q08722 whole entry): as above

| Variant | effect of a mutation on the interaction |
| --- | --- |
| A57M | disrupting interaction strength |
